This data set addresses VEGF165 (vascular endothelial growth factor, 165 aa form) (Homo sapiens, UniProt P15692-4 P15692-4:27-191). Briefly: filter. The note with it: tags: gift of N. Ferrara, Genentech; chain copies: 2 stated. As for the experimental part: Nitrocellulose Filter Binding Assays. Oligonucleotides bound to proteins can be effectively separated from the unbound species by filtration through nitrocellulose membrane filters (Yarus, M. and Berg, P. (1970) Anal. Biochem. 35:450-465; Lowary, P. T. and Uhlenbeck, O. C. (1987) Nucleic Acids Res. 15:10483-10493; Tuerk, C. and Gold, L. (1990) supra). Nitrocellulose filters (0.2 μm pore size, Schleicher and Schuell, Keene, N.H.) were secured on a filter manifold and washed with 4-10 ml of buffer; Following incubations of ³²P labeled RNA with serial dilutions of the protein for 10 min at 37° C. in buffer (PBS) containing 0.01% human serum albumin (HSA), the solutions were applied to the filters under gentle vacuum in […] aliquots and washed with 5 ml of PBS. The filters were then dried under an infrared lamp and counted in a scintillation counter.
To this end, certain ligands were synthesized and tested for binding affinity. The binding studies were performed using the protocols described in Example 1.

VEGF165 (vascular endothelial growth factor, 165 aa form), sequence (P15692 other isoform, or with tags, fused parts or gaps): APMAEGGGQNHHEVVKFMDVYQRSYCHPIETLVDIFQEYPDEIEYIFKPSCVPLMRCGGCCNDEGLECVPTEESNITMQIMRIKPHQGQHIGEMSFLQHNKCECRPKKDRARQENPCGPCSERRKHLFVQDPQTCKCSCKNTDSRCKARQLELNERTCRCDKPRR

With ACCCUGAUGGUAGACGCCGGGGUG (ssRNA, 2'-NH2 at all C and U; G9,A12,A14 2:1 mixture 2'-OMe:2'-OH) [NX-203], binding was characterised by a dissociation constant (Kd) of 0.2 nM.

Source of the values: patent US20030032785, “High-affinity oligonucleotide ligands to vascular endothelial growth factor (VEGF)” (published 2003).
